These results are taken from article PMC7396596.

In general, Kd refers to the equilibrium constant for the complex coming apart.

The target in this test is Recombinant SCY2 (Scylla paramamosain). Nature of the test: SPR; Biacore T200, CM5 chip; rSCY2 immobilised (~1,000 RU); rScyreprocin 12.5-400 nM flowed over; multiple cycle kinetics, 25°C, 30 μl/min, HEPES-buffered saline.

“His-tagged scyreprocin (rScyreprocin) (natural protein)”: the equilibrium dissociation constant (Kd) worked out at 20.8 nM.
